Data as given in article PMC9808001.

What was measured:
Assay in all cases: BLI; 25 nM WDR44 (334–389) wild type or mutant immobilised on anti-penta-His tips, […] nM Rab11; responses normalised to the mean wildtype response; 30 °C; 20 mM Hepes pH 7.5, 150 mM NaCl, 1 mM MgCl2, bovine serum albumin, 0.002% Tween-20
[1] = biological target: Strep-His WDR44 (334–389) I359A (human) (UniProt Q5JSH3)
[2] = biological target: Strep-His WDR44 (334–389) K360E (human) (UniProt Q5JSH3)
[3] = biological target: Strep-His WDR44 (334–389) L354A (human) (UniProt Q5JSH3)
Chain of Strep-His WDR44 (334–389) L354A (human) (Q5JSH3 334-389 L354A): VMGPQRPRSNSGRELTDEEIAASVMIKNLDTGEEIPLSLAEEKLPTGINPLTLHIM

[4] = biological target: Strep-His WDR44 (334–389) L370A (human) (UniProt Q5JSH3)
Chain of Strep-His WDR44 (334–389) L370A (human) (Q5JSH3 334-389 L370A): as the sequence (Q5JSH3 334-389 L354A) above, with A21L, L37A counted along it

Measured: percent decrease in complex formation against wild type

Chain of Strep-His WDR44 (334–389) I359A (human) (Q5JSH3 334-389 I359A): as the sequence (Q5JSH3 334-389 L354A) above, with A21L, I26A counted along it
Chain of Strep-His WDR44 (334–389) K360E (human) (Q5JSH3 334-389 K360E): as the sequence (Q5JSH3 334-389 L354A) above, with A21L, K27E counted along it

Rab11a (GTPγS-loaded) (from UniProt P62491 1-216) (natural protein)
> 95%: all assays above
